The source of these data is the RNAGym collection of RNA variant scans (doi:10.1021/acssynbio.7b00057).

Sequences and labels used below:
B1: Pistol ribozyme (parent)
chain: GGGUCGUUGUUCCAUAAUCGCGUGGAUAUGGCACGCAAGUUUCUACCGGGCACCGUAAAUGUCCGACUGGAGCCGUUCGGGCGGCUAUAAACAGACCUCAGGCCCGAAGCGUGGCGGCACCUGCCGCCGGUGGUAAAAAAGAUCGGAAGAGCACACGUCU

The variants in the series derive from B1. In words: aptazyme ON/OFF ratio, guanine; higher = stronger switching; co-transcriptional cleavage with and without guanine.
In the case of U7C U8C G9A U10A U11C C12G C13A, the “aptazyme ON/OFF ratio” value turned out to be 1.4.
Under U7C U8C G9A U10A U11C C12G C13G stands 1.4.
In the case of U7C U8C G9A U10A U11C C12G C13U it was 1.31; in that of U7C U8C G9A U10C U11A C12U C13A, 1.21; in that of U7C U8C G9A U10C U11A C12U C13U, 1.3.
In the case of U7C U8C G9A U10C U11A C12U C13G it was 1.27; in that of U7C U8C G9A U10A U11A C12U C13G, 1.13; in that of U7C U8C G9A U10A U11A C12U C13U, 1.11.
Turning to U7C U8C G9A U10A U11A C12U C13A, the “aptazyme ON/OFF ratio” value stood at 1.27.
Regarding U7C U8C G9A C13G, the “aptazyme ON/OFF ratio” value worked out at 1.11.
Consider U7C U8C G9A C13U, for which the “aptazyme ON/OFF ratio” value amounted to 1.83.
For U7C U8C G9A C13A, the “aptazyme ON/OFF ratio” value was 1.24.
For the variant U7C U8C G9A U10G U11G C13G, the “aptazyme ON/OFF ratio” value is 1.23.
In the case of U7C U8C G9A U10G U11G C13A it was 1.18.
Take U7C U8C G9A U10G U11G C13U: the “aptazyme ON/OFF ratio” value turned out to be 1.29.
On to U7C U8C G9A U10C C12A C13U, for which the “aptazyme ON/OFF ratio” value amounted to 1.21.
Take U7C U8C G9A U10C C12A C13G: the “aptazyme ON/OFF ratio” value worked out at 1.2.
With U7C U8C G9A U10C C12A C13A, the “aptazyme ON/OFF ratio” value came to 1.52.
With U7C U8C G9A U10A U11G C12G C13A, the “aptazyme ON/OFF ratio” value worked out at 1.13.
As to U7C U8C G9A U10A U11G C12G C13G, the “aptazyme ON/OFF ratio” value was 1.15.
Consider U7C U8C G9A U10A U11G C12G C13U, for which the “aptazyme ON/OFF ratio” value stood at 1.14.
Regarding U7C U8A U11G C12G, the “aptazyme ON/OFF ratio” value was 1.19.
For U7C U8A U11G C12U, the “aptazyme ON/OFF ratio” value amounted to 1.3.
U7C U8A U11G C12A: the “aptazyme ON/OFF ratio” value is 1.08.
For U7C U8A U11A C12U, the “aptazyme ON/OFF ratio” value is 1.16.
With U7C U8A U11A C12G, the “aptazyme ON/OFF ratio” value is 1.09.
In the case of U7C U8A U11A C12A, the “aptazyme ON/OFF ratio” value was found to be 1.28.
As to U7C U8C G9A U10A C12U C13G, the “aptazyme ON/OFF ratio” value amounted to 1.19.
Consider U7C U8C G9A U10A C12U C13A, for which the “aptazyme ON/OFF ratio” value worked out at 1.14.
U7C U8C G9A U10A C12U C13U: the “aptazyme ON/OFF ratio” value turned out to be 1.13.
On to U7C U8C G9A U10G U11A C12A C13U, for which the “aptazyme ON/OFF ratio” value was 1.16.
In the case of U7C U8C G9A U10G U11A C12A C13A it was 1.17; in that of U7C U8C G9A U10G U11A C12A C13G, 1.2.
Under U7C U8C stands 3.51.
As to U7C U8A U11C C13U, the “aptazyme ON/OFF ratio” value stood at 1.04.
On to U7C U8A U11C C13A, for which the “aptazyme ON/OFF ratio” value is 1.1.
On to U7C U8A U11C C13G, for which the “aptazyme ON/OFF ratio” value turned out to be 1.06.
For the variant U7C U8C G9A U10G C12A C13U, the “aptazyme ON/OFF ratio” value came out at 1.06.
Under U7C U8C G9A U10G C12A C13G stands 1.09.
On to U7C U8C G9A U10G C12A C13A, for which the “aptazyme ON/OFF ratio” value was found to be 1.13.
On to U7C U8C G9A U11A C12A C13U, for which the “aptazyme ON/OFF ratio” value was 1.38.
Under U7C U8C G9A U11A C12A C13G stands 1.18.
In the case of U7C U8C G9A U11A C12A C13A it was 1.43.
Take U7C U8A U10G U11G C12U: the “aptazyme ON/OFF ratio” value is 1.28.
In the case of U7C U8A U10G U11G C12A, the “aptazyme ON/OFF ratio” value came to 1.2.
For the variant U7C U8A U10G U11G C12G, the “aptazyme ON/OFF ratio” value came to 1.18.
With U7C U8C G9A U11C C12A, the “aptazyme ON/OFF ratio” value is 1.51.
With U7C U8C G9A U11C C12G, the “aptazyme ON/OFF ratio” value was 1.17.
U7C U8C G9A U11C C12U: the “aptazyme ON/OFF ratio” value came out at 1.66.
On to U7C U8A U11C C12G C13U, for which the “aptazyme ON/OFF ratio” value was 1.3.
In the case of U7C U8A U11C C12G C13G, the “aptazyme ON/OFF ratio” value amounted to 1.26.
In the case of U7C U8A U11C C12G C13A, the “aptazyme ON/OFF ratio” value was 1.3.
Regarding U7C U8C G9A U11A C12A, the “aptazyme ON/OFF ratio” value stood at 1.21.
Consider U7C U8C G9A U11A C12U, for which the “aptazyme ON/OFF ratio” value is 1.06.
As for U7C U8C G9A U11A C12G, the “aptazyme ON/OFF ratio” value was 1.21.
U7C U8A U10G U11C C12G C13A: the “aptazyme ON/OFF ratio” value was 1.3.
On to U7C U8A U10G U11C C12G C13U, for which the “aptazyme ON/OFF ratio” value turned out to be 1.38.
In the case of U7C U8A U10G U11C C12G C13G it was 1.14; in that of U7C U8A U11C C12A, 1.35; in that of U7C U8A U11C C12U, 1.44.
Under U7C U8A U11C C12G stands 1.36; under U7C U8C G9A U10C U11C, 3.61.
Consider U7C U8C G9A U10C U11G, for which the “aptazyme ON/OFF ratio” value is 1.24.
In the case of U7C U8C G9A U10C U11A, the “aptazyme ON/OFF ratio” value is 1.8.
With U7C U8A U11G C12A C13G, the “aptazyme ON/OFF ratio” value was 1.14.
U7C U8A U11G C12A C13U: the “aptazyme ON/OFF ratio” value was found to be 1.24.
On to U7C U8A U11G C12A C13A, for which the “aptazyme ON/OFF ratio” value is 1.11.
Regarding U7C U8C G9A U10G U11A C12G C13U, the “aptazyme ON/OFF ratio” value worked out at 1.11.
For the variant U7C U8C G9A U10G U11A C12G C13G, the “aptazyme ON/OFF ratio” value turned out to be 1.2.
With U7C U8C G9A U10G U11A C12G C13A, the “aptazyme ON/OFF ratio” value was 1.19.
On to U7C U8A U10G U11C C12U, for which the “aptazyme ON/OFF ratio” value was 1.09.
In the case of U7C U8A U10G U11C C12G, the “aptazyme ON/OFF ratio” value is 1.53.
Consider U7C U8A U10G U11C C12A, for which the “aptazyme ON/OFF ratio” value is 1.62.
Consider U7C U8C G9A U10C U11C C13U, for which the “aptazyme ON/OFF ratio” value turned out to be 1.19.
Under U7C U8C G9A U10C U11C C13A stands 1.08; under U7C U8C G9A U10C U11C C13G, 1.21.
In the case of U7C U8C G9A U11A C12U C13A it was 1.26.
Under U7C U8C G9A U11A C12U C13U stands 1.21.
Consider U7C U8C G9A U11A C12U C13G, for which the “aptazyme ON/OFF ratio” value came out at 1.25.
As to U7C U8C G9A U10C C12G C13U, the “aptazyme ON/OFF ratio” value turned out to be 1.11.
Take U7C U8C G9A U10C C12G C13G: the “aptazyme ON/OFF ratio” value is 1.21.
Turning to U7C U8C G9A U10C C12G C13A, the “aptazyme ON/OFF ratio” value stood at 1.28.
For the variant U7C U8C G9A U10G U11C C12G C13A, the “aptazyme ON/OFF ratio” value stood at 1.17.
